# Source: the nanobody polyreactivity screen of Harvey et al. (2022)
# Assay: yeast display, Sf9 membrane polyspecificity reagent, FACS + sequencing; frameworks hold sequencing errors
# Procedure, shortened: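 Nanobodies came from a synthetic yeast display library in Saccharomyces cerevisiae BJ5465, induced with galactose for 36–48 hours and stained for 1 hour at 4 °C with 10% biotinylated, detergent-solubilized Sf9 membrane reagent. Cells were enriched on streptavidin microbeads and then FACS-sorted, with low and high (top ~1%) gates set on anti-HA fluorescence for expression and streptavidin fluorescence for reagent binding. Each polyreactivity label reflects the gate a clone came from. Genes were amplified by colony PCR, sequenced by MiSeq 2 × 250 and filtered by CDR length.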
sequence,measurement,value
QVQLVESGGGLVQAGGSLRLRCAASGSTFVRYAMGWYREAAGKEMELVAAISSRGGSTYYADSVKGRFTISRDNAKNTVYLQMNSLKPEDTAVYYCNAAAFINFMLYDYWGQGTQVTVSS,polyreactivity (PSR sort gate),high polyreactivity
QVQLVESGGGLVQAGGSLRLSCAASGRIFRRYVMGWYRPAPGKERELVATINSNGGSTYYADSVKGRFTISRDNAKNTVYLQMNSLKPEDTAVYYCAAYYRWIGGRYTPYYYWGQATQVTVSS,polyreactivity (PSR sort gate),high polyreactivity
QVHLVDSGGGVVVAGGRLRLSCAASVFTFDRNAMGWYRHARGKERALVAAISSSGGRTYYADSVKGRFTISRDNAKNTFYLQMNSLKPEDTAVYYCNAVPSARTQPYNGWGQGSQVTVSS,polyreactivity (PSR sort gate),high polyreactivity
QVQLVESGGGLVQAGGSLRLSCAASGRTFTFYTMGWYRQAPGKERELVAAITRSGGGTYYADSVKGRFTISRDNAKNTVYLQMNSLKPEDTAVYYCAAYNRNAFHWGQGTQVTVSS,polyreactivity (PSR sort gate),high polyreactivity
QDQLVESGGGLVQAGGSLRLICAASGRIFNVYAMGWYRQAPGKERELVAAISWRGGNTYYADSVKGRFTISRDNAKNTVYLQMNSLKPEDTAVYYCAAVYRGYDYWGQGTQVTVSS,polyreactivity (PSR sort gate),high polyreactivity
QVQLVESGGGLVQAGGSLRLSCAASGSIFAVYAMGWYRQAPGKERELVAVITRSGGSTYYADSVKGRFTISRDNAKNTVYLQMISLKPEDTAVYYCAARTGYGYTRYEYWGQGTQVTVSS,polyreactivity (PSR sort gate),high polyreactivity
QVQHVESGGGLVQAGGSLRLSCAASGRTFDSYAMGWYRQAPGKERELVAAIYADSVKGRFTISRDNAKNTVYLQMNSLKPEDTAVYYCAAETYSGQTYLGEYDYWGQGTQVTVSS,polyreactivity (PSR sort gate),low polyreactivity
QVQLVESGGGLVQAGGSLRLSCAASGRTFFGYAMGWYRQAPGKERELVAAISSRGDSTYYADSVKGRFTISRDNAKNTVYLQMNSLKPEDTAVYYCNAPVYTAAGYRYGTVRYGYWGQGTQVTVSS,polyreactivity (PSR sort gate),low polyreactivity
QVQLVESGGGLVQAGGSLRLSSAASGSIFKYNAMGWYRQAPGEERELVAAIRWSGGSTYYADSVKGRFTISRDNAKNTVYLQMNSLKPEDTAVYYCAAEYFNQNTRQGYDYWGQGSQVTVSS,polyreactivity (PSR sort gate),low polyreactivity
QVQLVESGGGLVQAGGSLRLSCAASGRIFKRNTMGWYRQAPGKEMELVAAITYSGITYYADSVKGRFTISRDNAKNTVYLQMNSLKPEDTAVYYCAKVLYPIGSPRFEFWGQGTQVTVSS,polyreactivity (PSR sort gate),low polyreactivity
QVQLVESCGGKVQAGGSLRLSCAASGRIFWYYAMVWYRQAPGKERELVAAIDRTRVRTSYADSVKGRFTISRDNAKNTVYLQMNSLKPEDTAVYYCAADLVYGHYVTYWNSYVYWGQGTEVTVSS,polyreactivity (PSR sort gate),low polyreactivity
QVQLVESGGGLVQAGGSLRLSCAASGRIFAFYTMGWYIQAPGKERELVAAITRRSGSTYYADSVKGRFTISRDNAKNTVYLQMNSLKPEDTAVYYCAVDTYIYTNRRYTKFDYWGQGTQVTVSS,polyreactivity (PSR sort gate),low polyreactivity
QVQLVESGGGLVQAGGSLRLSCAASGRTFFWNAMGWYRQAPGTERELVAAITWSGGSTYYADSVKGRFTLSRDNAKNTVYLQMNSLKPEDTAVYYCAAVVSEYVWRYEYWGQGTQVTVSS,polyreactivity (PSR sort gate),low polyreactivity
QVQLVESGGGLVQAGGSLRLSCAASGRIFTPYVLGWYRQAPGKERELVARISWTGSSTYYADSVKGRFTISRDNAKNTVYLQMNSLKPEDTAVYYCAKRLTRFYTRLEYWGQGTQVTVSS,polyreactivity (PSR sort gate),low polyreactivity
QVQLVESGGGLVQAGGSLRLSCAASGFTFEYYAMGWYRQAPGKERELVAAIDTGGSTNYADSVKGRFTISRDNAKNTVYLQMNSLKPEDTAVYYCAADWSWWDGEDYHFEYDYWGQGTQVTVSS,polyreactivity (PSR sort gate),low polyreactivity
QVQLVESGGGLVQAGGSLRLSCAASGSTFWYYGMGWYRQAPGKERELVARINWSTGRTYYADSVKGRFTISRDNAKNTVYLQMNSLKPEDTAVYYCNALNPYKGQEAHYDYWGQGTQVTVSS,polyreactivity (PSR sort gate),high polyreactivity
QVQLVESGGGLVQAGGSLRLSCAASGFIVGRYAMGWYRQAPGNERELVAAITRSGGSTYYADSVKGRFTISRDNAKNTVYLQMISLKPEQTAVYFGAAYPGRAQVAYDYWGQGTQVTVSS,polyreactivity (PSR sort gate),high polyreactivity
HVQLVESGGGLVQAGGSLRLSCAASGRIFAPYDMGWYRPAPGNERELVAAISRSGGSTYYADSVKGRFTSSRDNAKNTVYLQMNSLKPEDTAVYYCAASYPGRYWLYRYEYWGQGTQVTVSS,polyreactivity (PSR sort gate),high polyreactivity
QVQLVESGGGIVQAGVSLRLSCAASGGTLCTYAMGWYRQAPGKERELVASIDSGDSTYYADSVKGRFTISRDNAKNTVYLQMNSLKPEDTAVYYCAAAYFRRYTTTWYGYEYWGQGTQVTVSS,polyreactivity (PSR sort gate),low polyreactivity
QVQLVESGGGLVQAGGSLRLSCAGSGIIFHLYAMGWYRQAPGKERELVAAISWNGSSTYYADSVKGRFTISRDNAKNTVYLQMNSLKPEDTAVYYCAASYGYFEDYGYWGQGTQVTVSS,polyreactivity (PSR sort gate),low polyreactivity
QVQLVESGGGLVQAGGSLRLSCAASGFIFPTYAMGWYRQAPGKERELVAAISRSGGRTYYADSVKGRFTISRDNAKNTVYLQKNSLKPEDTAVYYCAAAYLRRVAYDYWGQGTQVTVSS,polyreactivity (PSR sort gate),high polyreactivity
QVQLVESGGGLVQAGGSLRLSCAASGRIFDGNARGWYIQAPGKERELVAAISRNGGTYYADSVKGRFTISRDNAKNTVYLQMNSLKPEDTAVYYCAADPSSVGYHVEYDYWGQGTQVTVSS,polyreactivity (PSR sort gate),low polyreactivity
QVQLVESGGGLVQAGGSLRLSCAASGFTFRSYAMGWYRQAPGKERELVAGITWRGGRTYYADSVKGRFTISRDNAKNTVYLQMNSLKPEDTAVYYCAVRNASKNRKYYYWGQGTQVTVSS,polyreactivity (PSR sort gate),high polyreactivity
QVQLVESGGGLVQAGGSLRLSCASSGITFGVYAMGWYRQAPGKERELVAAISRRGAYTYYADSVKGRFTISRDNGKNTVYLQMNSLKPEDTAVYYCAAYLARRQYDYWGQGTQVTVSS,polyreactivity (PSR sort gate),high polyreactivity
QVQLVESGGGLVQAGGSLRLSCAASGSSLTYNAMGWYRQAPGKERELVAVISARGGRTYYADSVKGRFTISRDNAKNTVYLQMNSLKPEDTAVYYCAAVFYYSYYRITSGDYWGQGTQVTVSS,polyreactivity (PSR sort gate),high polyreactivity
QVQLVESGGGLVQAGGSLRLSCAASGRTFSEYAMGWYRQAPGKERELVAAITRSGGGTYYADSVKGRFTISRDNAKNTVYLQMNSLKPEDTAVYYCATQSFSPYDYTDEYWGQGTQVTVSS,polyreactivity (PSR sort gate),high polyreactivity
QVQLVESGGGLVQAGGSLRLSCAASGRTFYPYAMGWYRQAPGKEREFVAAITWTGDSTYYADSVKGRFTISRDNAKNTVYLQMNSLKPEDTAVYYCAADLSSSPYYYGYDYWGQGTQVTVSS,polyreactivity (PSR sort gate),low polyreactivity
QVQLVESGGGLVQAGGSLRLSCAASGFIFPEYAMGWYRQAPGKERELVAAINWSGGNTYYADSVKGSFTISRDNAKNTVYLQMNSLKPEDTAVYYCNVDDWVTDDDYWGQGTQVTVSS,polyreactivity (PSR sort gate),low polyreactivity
QVQLVESVGGLVQAVGSLRLSCAASGRTFRHNAMGWYRQAHGKVRELVAAISSSGTNTHYADSVKGRFTISRDIAKNTVYLQMNSLQPEDTAVYYCAADRWGARRNQYHENGYWGQGTQVTVSS,polyreactivity (PSR sort gate),high polyreactivity
QVQLVESGGGLVQAGGSLRLSCAASGSTLNRNVMGWYRQAPGKERELVAVITYGVGSTYYADSVKGRFTISRDNAKNTVYLQMNSLKPEDTAVYYCNRPTYLHSTSYSYDYWGQGTQVTVSS,polyreactivity (PSR sort gate),low polyreactivity
QVQLVESGGGLVQAGGSLRLSCAASGIIFDGYAMGWYRQAPGKERELVAAISRRGGSTYYADSVKGRFTISRDNAKNTVYLQMNSLKPEDTAVYYCAAEYVYWRIGQYDYWGQGTQVTVSS,polyreactivity (PSR sort gate),high polyreactivity
QVQLVESGGGLVQAGGSLRLSCAASGRIFGENAMGWYRQAPGKEREFVAVISISDASTYYADSVKGRFTISRDNAKNTVYLQMNSLKPEDTAVYYCNTDYINGYYIEGEPPYKFDYWGQGTQVTVSS,polyreactivity (PSR sort gate),low polyreactivity
QVQLVESGGGLVQAGCSLRLICAASGSTFDPNAMGWYRQSPGKERQLVAVIDSGDGTTYYADSVKGRFTISRDNAKNTVYLQMNSLKPEDTAVYYCAVDESTSYYDDHEDYWGQGTQVTVSS,polyreactivity (PSR sort gate),low polyreactivity
QVQLVESGGGLVQAGGSLRLSCAASGSIFRYYAMGWYRQAPGKERELVAAITASGGRTHYADSVKGRFTISRDNAKNTVYLQMNSLKLEDTAVYYCSADLYYAWYWKQHYDYWGQGTQVTVSS,polyreactivity (PSR sort gate),high polyreactivity
QFQLVESGGGLDQAGGSLRLSCAASGRIFDGYVMGWYRQAPGKDRELVAAISSSGGRTYYADSVKGRFTISRDNAKNTVYLQMNCLKPDDTAVYYCAARYGRYRSVDYWGQGTQVTVSS,polyreactivity (PSR sort gate),high polyreactivity
QFQLVESGGGLVQAGGSLRISCAASGSIFLFYAMGWYRKAPGKERELVAAIDQSGGSTYYADSVKGRFTFSRDNAKKTVYFQMNSLKPEDTAVYYSAAVHSLYWLGDDTYGYDYWGQGTQVTVSS,polyreactivity (PSR sort gate),low polyreactivity
QVQLVESGGGLVQARGSLRLSSAASGYIFYHYAMGWYRQSPGKERELVAAISSGGGSTYYADSVKGRFTISRDYAKNTVSLQINSLKPEDTAVYYCNAVRYYTKYDYWGQGTQVTVSS,polyreactivity (PSR sort gate),high polyreactivity
QVHLVESGGGLVQAGGSLRLSCAASGGTIGTYAMGWYRQAPGKERELVAAISGRGGSTFYADSVKGRFTISRDNAKNSVYLQMNSLKPEDTAVYYSARGHGRSSKYDYWGQGTQVTVSS,polyreactivity (PSR sort gate),high polyreactivity
QVQLVESGGGLVQAGGSLRLSCAASGSIFNPYDMGWYRQAPGKERELVATISGGGGSTYYADSVKGRFTISRDNAKNTVYLQMNSLKPEDTAVYYCNKTDFNTNDLKFDYWGQGTQVTVSS,polyreactivity (PSR sort gate),low polyreactivity
QVQLVESGGGLVQAGGSLRLSCAASGSNFGEYAMGWYRQAPGKERELVAAITSGGNTYYADSVKGRFTISRDNAKNTVYLQMNSLKPEDTAVYYCAATRTRYWGGDYWGQGTQVTVSS,polyreactivity (PSR sort gate),low polyreactivity
QVQLVESGGGLVQAGGSLRLSCAASGRTFGRNAMGWYRQAPGKEREFVAAISRRGDTTYYADSVKGRFTISRDNAKNTVYLQMNSLKPEDTAVYYCNADVIKDRFSWYYYWGQGTQVTVSS,polyreactivity (PSR sort gate),low polyreactivity
QVQLVESGGGLVQAGGSLRLSCAASGSIFIGYAMGWYRQAPGKERELVAAISWSGDSTYYADSVKGRFTISRDNAKNTVYLQMNSLKPEDTAGYYCAADDLDYDNYYQITGEYDYWGQGTQVTVSS,polyreactivity (PSR sort gate),high polyreactivity
QVQLVESGGGLVQAGGSLRLSCAASGSTFGSNAMGWYRQAPGKERELVAAITRRGGSTYYADSVKGRFTISRDKAKNTVYLQMNSLKPEDTAVYYCAAQIHPRRDYSAFDYWGQGTQVTVSS,polyreactivity (PSR sort gate),low polyreactivity
